Test results: IntAct's records for PubMed 23892456

B1: Homeobox protein NANOG (Mus musculus), Q80Z64 (parent)
chain: MSVGLPGPHSLPSSEEASNSGNASSMPAVFHPENYSCLQGSATEMLCTEAASPRPSSEDLPLQGSPDSSTSPKQKLSSPEADKGPEEEENKVLARKQKMRTVFSQAQLCALKDRFQKQKYLSLQQMQELSSILNLSYKQVKTWFQNQRMKCKRWQKNQWLKTSNGLIQKGSAPVEYPSIHCSYPQGYLVNASGSLSMWGSQTWTNPTWSSQTWTNPTWNNQTWTNPTWSSQAWTAQSWNGQPWNAAPLHNFGEDFLQPYVQLQQNFSASDLEVNLEATRESHAHFSTPQALELFLNYSVTPPGEI

Variants of: B1
Settings: with sox2_mouse Sox2, P48432
sox2_mouse Sox2, P48432, sequence (P48432 whole entry): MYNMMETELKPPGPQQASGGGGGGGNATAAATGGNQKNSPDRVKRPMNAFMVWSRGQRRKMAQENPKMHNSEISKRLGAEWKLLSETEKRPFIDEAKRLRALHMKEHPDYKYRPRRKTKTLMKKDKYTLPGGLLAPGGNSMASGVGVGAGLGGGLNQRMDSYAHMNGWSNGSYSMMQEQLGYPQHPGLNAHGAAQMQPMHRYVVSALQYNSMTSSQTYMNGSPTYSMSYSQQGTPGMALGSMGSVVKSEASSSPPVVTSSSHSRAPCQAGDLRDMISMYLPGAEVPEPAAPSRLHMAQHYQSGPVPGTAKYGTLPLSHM

Variant	effect of a mutation on the interaction
MSVGLPGPHSLPSSEEASNSGNASSMPAVFHPENYSCLQGSATEMLCTEAASPRPSSEDLPLQGSPDSSTSPKQKLSSPEADKGPEEEENKVLARKQKMRTVFSQAQLCALKDRFQKQKYLSLQQMQELSSILNLSYKQVKTWFQNQRMKCKRWQKNQWLKTSNGLIQKGSAPVEYPSIHCSYPQGYLVNASGSLSMAGSQTATNPTASSQTATNPTANNQTATNPTASSQAATAQSANGQPANAAPLHNFGEDFLQPYVQLQQNFSASDLEVNLEATRESHAHFSTPQALELFLNYSVTPPGEI [W198A;W203A;W208A;W213A;W218A;W223A;W228A;W233A;W238A;W243A]	disrupting interaction
